# Results published in paper PMC2851846 (Oncogene, 2010).
# B1: HTLV-1 Tax protein, Tax-His6 (natural protein)
# chain: not shown
# What was measured:
# [1] = biological target: T1, pCREB/KIX ternary complex on CRE DNA (pCREB/KIX/CRE) (UniProt P16220-2 1-327; P45481 588-683, phosphoserine at 133 (Ser133)); test: native gel or EMSA
# [2] = biological target: T1, pCREB/KIX ternary complex on CRE DNA …; test: native gel or EMSA; remark: listed apart in the source
# T1 sequence (P16220 whole entry, chain 1 of 2): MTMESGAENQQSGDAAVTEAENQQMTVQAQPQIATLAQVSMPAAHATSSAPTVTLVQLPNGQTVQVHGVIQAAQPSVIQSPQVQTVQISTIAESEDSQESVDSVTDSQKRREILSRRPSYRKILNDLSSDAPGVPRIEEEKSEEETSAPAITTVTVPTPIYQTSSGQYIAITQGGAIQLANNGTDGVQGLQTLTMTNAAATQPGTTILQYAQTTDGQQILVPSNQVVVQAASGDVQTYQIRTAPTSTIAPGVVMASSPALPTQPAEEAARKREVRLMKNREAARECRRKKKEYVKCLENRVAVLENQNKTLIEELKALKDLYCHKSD
# T1 sequence (P45481 588-683, chain 2 of 2): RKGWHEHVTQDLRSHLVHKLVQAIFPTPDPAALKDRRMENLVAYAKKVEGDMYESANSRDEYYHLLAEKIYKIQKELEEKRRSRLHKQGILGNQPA
binder,measurement,setting,value
B1,apparent Kd on vCRE DNA,[1],2.4 ± 0.1 nM
same,apparent Kd on cyclin D1 CRE DNA,[2],34 ± 5 nM
